# Where no end group is shown, it is not given here.
# B1: ITKV (peptide)
# peptide: ITKV
# notes: also called MAGI 3 PDZ2 domain "naturally-selected" ligand
# How the values were obtained:
# MAGI 3 PDZ2 = target: T1, MAGI 3 PDZ2 (Homo sapiens, UniProt Q5TCQ9); test: Biotinylated peptide pull-down of PDZ domains from HEK 293 cell extracts; format: binding; set-up: PDZ 2; aa; expressed in transfected cells; host or cells: HEK 293; conditions: GST fusion, FIG. 4, FIG. 8
# T1 sequence (Q5TCQ9 584-707 isoform Q5TCQ9-2): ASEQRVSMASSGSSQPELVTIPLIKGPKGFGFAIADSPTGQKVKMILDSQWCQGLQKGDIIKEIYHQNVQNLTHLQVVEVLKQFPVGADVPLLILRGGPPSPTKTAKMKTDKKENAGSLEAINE
# Experimental: (§1) HEK 293 (293) cells grown in high glucose Dulbeco's Modified Eagle Medium (DMEM), 10% fetal calf serum, 1× non-essential amino acid supplement, 1×L-glutamine supplement, 10 mM HEPES (pH 7.4) and penicillin/streptomycin (all from Life Technologies) to ˜80% confluence were transfected with 2 μg DNA/35 mm diameter well (for example, DNAs encoding the sequences described in EXAMPLE 5.0) using Fugene reagent (Roche Biochemical). 24 hours post-transfection, cells were washed once with PBS and then scraped into 1 ml/well of 20 mM Tris (pH 7.5), 1% Triton X-100, 200 mM NaCl, 1 mM dithiothreitol, and protease inhibitor cocktail with EDTA (Roche Biochemical, catalog #1836145) and homogenized gently with three to five strokes in a dounce (Wheaton) using a loose glass pestle. Extracts were centrifuged at 12,000 rpm in a tabletop centrifuge at 4° C. for 10 minutes; the supernatant was combined with an equal volume of homogenization buffer without NaCl to achieve a final salt concentration of 100 mM and frozen at −70° C. until use. For peptide-pull-down experiments of MAGI-3 PDZ domains or the ERBIN PDZ domain, 100 μl of 293 cell extract was diluted to 400 μl in binding buffer (homogenization buffer modified to 100 mM NaCl) and incubated with 10 μM amino-terminally biotinylated peptide and 100 μl of strepavidin agarose (Sigma) for 2 hours on a rotator at 4° C. The beads were washed three times with 1 ml binding buffer and boiled in 60 μl of Laemmli's reducing sample buffer, of which 15 μl was loaded onto SDS-gels. PDZ domains co-precipitated with a given biotinylated peptide were visualized by immunoblot analysis using anti-GST (Genentech) or anti-GFP (Clontech) antibodies. […] Binding of 293 cell-expressed proteins was detected by immunoblot analysis using antibodies against GFP (Clontech) and Her 2 (Santa Cruz Biotechnology). […]
# Caco-2 cells = test: Peptide targeting in live Caco-2 cells (fluorescein coupled peptides, confocal microscopy); format: cell-based; conditions: polarised Caco-2 monolayer, overnight incubation, 2 mM or 5 mM peptide; FIG. 5
# Experimental: Caco-2 cells were grown on polycarbonate transwell filters (12 mm diameter, 0.4 μm pore size; Costar) in same media as HEK 293 cells) until a fully polarized monolayer was obtained as determined by resistance measurements. The live cells were then incubated overnight with amino terminally, fluorescein (FAM) coupled peptides: (A) 2 μM of ATQITWV (SEQ ID NO:214), (B) 2 μM ATQITWA (SEQ ID NO:215) or (C) 5 μM ASKITWV (SEQ ID NO:216) added into the media of the lower transwell chamber. The cells were then washed with Hanks Balanced Salt Solution (HBSS) with 1.8 mM CaCl2, fixed with ice cold methanol, permeabilized with 0.25% Triton X-100 in PBS, blocked with 5% donkey serum in PBS and stained with 1.5 μg monoclonal anti-γ-catenin antibody. The basolateral marker protein γ-catenin was visualized using Cy3-conjugated donkey anti-mouse antibodies (Jackson Immunolabs), diluted 1:1000. Processed filters were excised with a razor and mounted between a slide and coverslip with Vectashield mounting medium (Vector Labs; Burlingame, Calif.). Images were taken on a Leica confocal microscope using a 63X oil immersion objective.
# Caco-2 cells were grown on polycarbonate transwell filters until a fully polarised monolayer was obtained. The live cells were then incubated overnight with the fluorescein (green) coupled peptides: (A) 2 mM of ATQITWV (SEQ ID NO:214), (B) 2 mM ATQITWA (SEQ ID NO:215) or (C) 5 mM ASKITW (SEQ ID NO:221) (FIG. 5). The cells were then fixed and counterstained with antibodies against the protein γ-catenin (FIG. 5). […] Substitution of A for V at the peptide carboxyl terminus should disrupt the interaction of a ligand with its cognate PDZ binding partner.
# [1] = target: GST-MAGI-3 PDZ 3 (aa. 741-840 of SEQ ID NO:200) (human) [GST: P08515]; test: competition ELISA: peptide blocks GST-PDZ binding to immobilized peptide
# GST-MAGI-3 PDZ 3 (aa. 741-840 of SEQ ID NO:200) (human) [GST: P08515], sequence (P08515 whole entry, the tested form may be a part): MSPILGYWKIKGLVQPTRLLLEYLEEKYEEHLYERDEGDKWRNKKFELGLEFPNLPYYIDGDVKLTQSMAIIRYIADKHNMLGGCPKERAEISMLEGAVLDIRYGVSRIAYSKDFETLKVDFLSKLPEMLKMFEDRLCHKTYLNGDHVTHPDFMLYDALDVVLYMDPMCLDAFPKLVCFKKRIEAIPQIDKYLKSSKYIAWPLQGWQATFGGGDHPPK
# MAGI-3 PDZ 3 = target: T2, MAGI-3 PDZ 3 (Homo sapiens, UniProt Q5TCQ9); test: Biotinylated peptide pull-down of PDZ domains from HEK 293 cell extracts; format: binding; conditions: GST fusion, FIG. 4
# T2 construct: PDZ 3; aa; expressed in transfected cells; host or cells: HEK 293
# T2 sequence (Q5TCQ9 741-840 isoform Q5TCQ9-2): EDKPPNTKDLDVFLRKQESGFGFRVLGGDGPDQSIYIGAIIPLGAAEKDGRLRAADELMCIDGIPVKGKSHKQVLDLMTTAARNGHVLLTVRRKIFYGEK
# Experimental: as §1, with “use.” for “use. For peptide-pull-down experiments of MAGI-3 PDZ domains or the ERBIN PDZ domain, 100 μl of 293 cell extract was diluted to 400 μl in binding buffer (homogenization buffer modified to 100 mM NaCl) and incubated with 10 μM amino-terminally biotinylated peptide and 100 μl of strepavidin agarose (Sigma) for 2 hours on a rotator at 4° C. The beads were washed three times with 1 ml binding buffer and boiled in 60 μl of Laemmli's reducing sample buffer, of which 15 μl was loaded onto SDS-gels. PDZ domains co-precipitated with a given biotinylated peptide were visualized by immunoblot analysis using anti-GST (Genentech) or anti-GFP (Clontech) antibodies.”
# [2] = target: GST-MAGI-3 PDZ 2 (aa. 584-707 of SEQ ID NO:200) (human) [GST: P08515]; test: competition ELISA: peptide blocks GST-PDZ binding to immobilized peptide
# GST-MAGI-3 PDZ 2 (aa. 584-707 of SEQ ID NO:200) (human) [GST: P08515], sequence (P08515 whole entry, the tested form may be a part): as the sequence (P08515 whole entry, the tested form may be a part) above
# [3] = target: GST-MAGI-3 PDZ 2 (aa. 584-707 of SEQ ID NO:200) (human) [GST: P08515]; test: competition ELISA
# [4] = target: ERBIN PDZ-GST fusion protein (aa. 1217-1371 of SEQ ID NO:201) (human) [GST: P08515]; test: competition ELISA: ERBIN PDZ-GST binding to immobilized biotin-PDZ 501
# ERBIN PDZ-GST fusion protein (aa. 1217-1371 of SEQ ID NO:201) (human) [GST: P08515], sequence (P08515 whole entry, the tested form may be a part): as the sequence (P08515 whole entry, the tested form may be a part) above
# ERBIN PDZ domain = ERBIN PDZ domain (Homo sapiens, UniProt Q96RT1); test: GST-PDZ co-precipitation of proteins from transfected HEK 293 cell extracts; format: binding; set-up: made in house; host or cells: E. coli; conditions: extracts from transfected HEK 293 cells; FIG. 6
# ERBIN PDZ domain, sequence (Q96RT1 1258-1412): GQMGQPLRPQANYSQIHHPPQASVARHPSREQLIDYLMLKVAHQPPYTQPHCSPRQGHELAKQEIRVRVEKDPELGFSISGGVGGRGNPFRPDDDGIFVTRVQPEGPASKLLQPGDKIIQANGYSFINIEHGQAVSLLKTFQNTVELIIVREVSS
# Experimental: HEK 293 (293) cells grown in high glucose Dulbeco's Modified Eagle Medium (DMEM), 10% fetal calf serum, 1× non-essential amino acid supplement, 1×L-glutamine supplement, 10 mM HEPES (pH 7.4) and penicillin/streptomycin (all from Life Technologies) to ˜80% confluence were transfected with 2 μg DNA/35 mm diameter well (for example, DNAs encoding the sequences described in EXAMPLE 5.0) using Fugene reagent (Roche Biochemical). 24 hours post-transfection, cells were washed once with PBS and then scraped into 1 ml/well of 20 mM Tris (pH 7.5), 1% Triton X-100, 200 mM NaCl, 1 mM dithiothreitol, and protease inhibitor cocktail with EDTA (Roche Biochemical, catalog #1836145) and homogenized gently with three to five strokes in a dounce (Wheaton) using a loose glass pestle. Extracts were centrifuged at 12,000 rpm in a tabletop centrifuge at 4° C. for 10 minutes; the supernatant was combined with an equal volume of homogenization buffer without NaCl to achieve a final salt concentration of 100 mM and frozen at −70° C. until use. […] Binding of 293 cell-expressed proteins was detected by immunoblot analysis using antibodies against GFP (Clontech) and Her 2 (Santa Cruz Biotechnology).
# Amino acids 1217-1371 of ERBIN and 584-707 corresponding to PDZ 2 of MAGI-3 (Sidhu et al., 2000); were expressed in E. coli as GST fusions. […] Equal volumes of extract and depleted extract (sup.) were analyzed.
# [5] = target: GST-MAGI-3 PDZ 3 (aa. 741-840 of SEQ ID NO:200) (human) [GST: P08515]; test: competition ELISA
# hZO1 PDZ1 = target: T3, hZO1 PDZ1 (Homo sapiens, UniProt Q07157); test: IC50 (nM) | hZO1 PDZ1 | 5 nM | B01-88 | Bio-GGWRWTTWL (SEQ ID NO: 684) | 36 nM
# T3 construct: Human ZO1 (NM_003257) PDZ1; GST; made in house
# T3 sequence (Q07157 23-110): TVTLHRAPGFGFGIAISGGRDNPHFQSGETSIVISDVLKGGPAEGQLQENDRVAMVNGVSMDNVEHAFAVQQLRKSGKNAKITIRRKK
# Experimental: Table printed on a drawing sheet, FIG. 12A
# Head of the field: IC50 (nM) | hZO1 PDZ1 | 5 nM | B01-88 | Bio-GGWRWTTWL (SEQ ID NO: 684) | 36 nM
# The patent's description of the figure: FIG. 12. IC50 values indicating binding affinities of various peptides to PDZ domains
# First copying reader's note: Upper left part of a table split over FIG. 12A-12D; further receptor columns and further peptides are on the other sheets.
# Where the first naming reader finds the target: head: IC50 (nM) | hZO1 PDZ1 | 5 nM | B01-88
# [6] = target: T4, GST-MAGI-3 PDZ 2 (aa. 584-707 of SEQ ID NO:200) (human, UniProt P08515 1-218 = GST); test: competition ELISA: peptide blocks GST-PDZ binding to immobilized peptide
# T4 sequence (P08515 whole entry): as the sequence (P08515 whole entry, the tested form may be a part) above
# [7] = target: T4, GST-MAGI-3 PDZ 2 (aa. 584-707 of SEQ ID …); test: competition ELISA
# [8] = target: ERBIN PDZ-GST fusion protein (aa. 1217-1371 of SEQ ID NO:201) (human, UniProt P08515 1-218 = GST); test: competition ELISA: ERBIN PDZ-GST binding to immobilized biotin-PDZ 501
# ERBIN PDZ-GST fusion protein (aa. 1217-1371 of SEQ ID NO:201), sequence (P08515 whole entry, the tested form may be a part): as above
molecule,measurement,setting,value
"ATQITWV [derivative of the C-terminus of PTEN, K to W at (−1); used biotinylated or fluorescein coupled]",precipitation of MAGI-3 PDZ 2 from cell extracts by biotinylated peptide,MAGI 3 PDZ2,efficiently precipitate only the PDZ domain that they were phage-selected against
same,localization of fluorescein coupled peptide in live cells,Caco-2 cells,localize apically on the lateral membrane to the tight junction
TRWWFDI (peptide),IC50,[1],0.9 µM
"ATQITKV [biotinylated peptide with W to K change at the (−1) position, reference compound]",precipitation of MAGI-3 PDZ 2 from cell extracts by biotinylated peptide,MAGI 3 PDZ2,did not bind
same,precipitation of MAGI-3 PDZ 3 from cell extracts by biotinylated peptide,MAGI-3 PDZ 3,did not bind
CSWV (peptide),IC50,[2],1.4 µM
same,IC50,[3],1 µM
VTWV (peptide),IC50,[2],4 µM
same,IC50,[3],4 µM
DVPV (peptide),IC50,[4],> 400 µM
"Her 2: Her 2 receptor, a previously reported ligand for the ERBIN PDZ",binding to / precipitation by GST-ERBIN PDZ,ERBIN PDZ domain,specifically precipitated
ATQITWA [V to A change at the (0) position; used biotinylated or fluorescein coupled],precipitation of MAGI-3 PDZ 2 from cell extracts by biotinylated peptide,MAGI 3 PDZ2,did not bind
same,localization of fluorescein coupled peptide in live cells,Caco-2 cells,does not target to the tight junction
same,precipitation of MAGI-3 PDZ 3 from cell extracts by biotinylated peptide,MAGI-3 PDZ 3,did not bind
ASKITWV [amino terminally fluorescein (FAM) coupled peptide],localization of fluorescein coupled peptide in live cells,Caco-2 cells,localize apically on the lateral membrane to the tight junction
TRWWFDI-NH2 (peptide),IC50,[1],300 µM
same,fold reduction in binding affinity against the unamidated peptide,[5],300 fold
"Ac-FETWL [3 | 01-08, SEQ ID NO: 642: N^AC-FETWL]",IC50,hZO1 PDZ1,10400 nM
ASKVTWV (synthetic peptide),IC50,[6],0.8 µM
B1,IC50,[7],200 µM
DVPA (also called DVPA ligand),IC50,[8],> 100 µM
TGWDTWV,IC50,[8],4.5 to 5 µM
TGWETWV (test peptide in solution),IC50,[8],0.5 to 1 µM
DGICSWV (synthetic peptide),IC50,[6],0.3 µM

# Reference: US20030148264A1, “Phage displayed PDZ domain ligands” (GENENTECH, INC., priority 2001, published 2003)
